Test results taken from patent publication US20250154283A1 (published 2025).

B1: 1675_Lib1_scFv (scFv, not shown: small tags and cut ends)
scFv: QVQLVQSGAEVKKPGASVKVSCKVSGVTLTSSAISWVRQAPGKGLEWMGGITPIFGTPIYAQKFQGRVTMTEDTSTDTAYMELSSLKSEDTAVYYCATDYGYPFWAFDIWGQGTMVTVSSSGGSTITSYNVYYTKLSSSGTDIQMTQSPSSVSASVGDRVTITCRASQGIYSALAWYQQKPGKAPKLLIYESSKRPSGVPSRFSGSGSGTDFTLTISSLQPEDFANYYCEQYASSPPTFGGGTKVEIK
B2: 399_Lib1_scFv (scFv, not shown: small tags and cut ends)
scFv: QVQLVQSGAEVKKPGASVKVSCKVSGITFTSDYIHWVRQAPGKGLEWMGGMNPYSNKAIYAQKFQGRVTMTEDTSTDTAYMELSSLKSEDTAVYYCATGGLRIAARTSYFDYWGQGTLVTVSSSGGSTITSYNVYYTKLSSSGTDIQMTQSPSSVSASVGDRVTITCRASMDIAGSLAWYQQKPGKAPKLLIYDTSFRATGVPSRFSGSGSGTDFTLTISSLQPEDFANYYCQQYDNPPRLTFGGGTKVEIK
B3: 5662_Lib8_scFv (scFv, not shown: small tags and cut ends)
scFv: EVQLVESGGGLVQPGRSLRLSCAASGFNFHNYDMHWVRQAPGKGLEWVSAIDISGQSTDYADSVEGRFTISRDNAKNSLYLQMNSLRAEDTAVYYCAREGWYGGVFDYWGQGTLVTVSSSGGSTITSYNVYYTKLSSSGTDIQMTQSPSSLSASVGDRVTITCRASQDIANWLAWYQQKPGKAPKLLIYGASESGVGVPSRFSGSGSGTDFTLTISSLQPEDVATYYCQQSLTMKTFGGGTKVEIK
B4: 27_Lib4_scFv (scFv, not shown: small tags and cut ends)
scFv: QVQLQESGPGLVKPSQTLSLTCTVSGASFGDHYWSWIRQPPGKGLEWIGYIDATGSIDYNPSLKSRVTMSVDTSKNQFSLKVNSVTAADTAVYYCARVASYYYYMDVWGKGTTVTVSSSGGSTITSYNVYYTKLSSSGTEIVMTQSPATLSLSPGERATLSCRASQSITGSYLAWYQQKPGQAPRLLIYGASDRAPGIPARFSGSGSGTDFTLTISSLEPEDFAVYYCQQYGSFPYTFGGGTKVEIK
B5: Lib4_P2_A10_scFv (scFv, not shown: small tags and cut ends)
scFv: QVQLQESGPGLVKPSQTLSLTCTVSGASLGHQYWSWIRQPPGKGLEWIGYIDTSGSTDYNPSLKSRVTMSVDTSKNQFSLKVNSVTAADTAVYYCARVANYYYYMDVWGKGTTVTVSSSGGSTITSYNVYYTKLSSSGTEIVMTQSPATLSLSPGERATLSCRASQSVSNRLAWYQQKPGQAPRLLIYDASNRATGIPARFSGSGSGTDFTLTISSLEPEDFAVYYCQQYFITPSTFGGGTKVEIK
B6: 4675_Lib4_scFv (scFv, not shown: small tags and cut ends)
scFv: QVQLQESGPGLVKPSQTLSLTCTVSGFSLTSHPEGVNWIRQPPGKGLEWIGYIAHSGTTDYNPSLKSRVTMSVDTSKNQFSLKVNSVTAADTAVYYCARAYGDSDAFDIWGQGTMVTVSSSGGSTITSYNVYYTKLSSSGTEIVMTQSPATLSLSPGERATLSCRASQSIGRNLAWYQQKPGQAPRLLIYGASKRVTGIPARFSGSGSGTDFTLTISSLEPEDFAVYYCQQYSTWPTFGGGTKVEIK
B7: 4956_Lib1_scFv (scFv, not shown: small tags and cut ends)
scFv: QVQLVQSGAEVKKPGASVKVSCKVSGYTLTSNYIHWVRQAPGKGLEWMGGFNPSSGSTIYAQKFQGRVTMTEDTSTDTAYMELSSLKSEDTAVYYCARTLYDFWSGYLDAFDIWGQGTMVTVSSSGGSTITSYNVYYTKLSSSGTDIQMTQSPSSVSASVGDRVTITCRASQNIRSSLAWYQQKPGKAPKLLIYAASNLEPGVPSRFSGSGSGTDFTLTISSLQPEDFANYYCQQYEDTPLTFGGGTKVEIK
B8: Lib4_P2_A11_scFv (scFv, not shown: small tags and cut ends)
scFv: QVQLQESGPGLVKPSQTLSLTCTVSGVTFSSYGWSWIRQPPGKGLEWIGYVDTSGSTDYNPSLKSRVTMSVDTSKNQFSLKVNSVTAADTAVYYCARTTYYYDSSGFARGWFDPWGQGTLVTVSSSGGSTITSYNVYYTKLSSSGTEIVMTQSPATLSLSPGERATLSCRASRSISTNLAWYQRKPGQAPRLLIYDTSNRAPGIPARFSGSGSGTDFTLTISSLEPEDFAVYYCLQYDVSPYTFGGGTKVEIK
notes: also called Lib4_P2_All
B9: Lib6_P3_A8_scFv (scFv, not shown: small tags and cut ends)
scFv: EVQLVQSGAEVKKPGASVKVSCKASGYRFTNYDISWVRQAPGQGLEWMGGINPSSGITIYAQKLQGRGTMTTDPSTSTAYMELRSLRSDDTAVYYCARGAAYGDYLDYWGQGTLVTVSSSGGSTITSYNVYYTKLSSSGTESALTQPASVSGSPGQSITISCTGTNLGEKYVSWYQQHPGKAPKLMIYSTSQRPSGVSNRFSGSKSGNTASLTITGLQAEDEADYYCSSYTASSTPGLVFGGGTKLTVL
B10: Lib4_P2_D1_scFv (scFv, not shown: small tags and cut ends)
scFv: QVQLVQSGAEVKKPGASVKVSCKVSGDTLSNYAIHWVRQAPGKGLEWMGGINPNAGTTIYAQKFQGRVTMTEDTSTDTAYMELSSLKSEDTAVYYCARDSSSWCPVGYYYYYMDVWGKGTTVTVSSSGGSTITSYNVYYTKLSSSGTDIQMTQSPSSVSASVGDRVTITCRASQSIGDFLAWYQQKPGKAPKLLIYDASHLQTGVPSRFSGSGSGTDFTLTISSLQPEDFANYYCQQTSTIPPTFGGGTKVEIK
B11: Lib1_P1_A5_scFv (scFv, not shown: small tags and cut ends)
scFv: QVQLVQSGAEVKKPGASVKVSCKVSGDTLSNYAIHWVRQAPGKGLEWMGGINPNAGTTIYAQKFQGRVTMTEDTSTDTAYMELSSLKSEDTAVYYCARDSSSWCPVGYYYYYMDVWGKGTTVTVSSSGGSTITSYNVYYTKLSSSGTDIQMTQSPSSVSASVGDRVTITCRASQSIGDFLAWYQQKPGKAPKLLIYDASHLQTGVPSRFSGSGSGTDFTLTISSLQPEDFANYYCQQTSTIPPTFGGGTKVEIK
B12: Lib1_P1_F10_scFv (scFv, not shown: small tags and cut ends)
scFv: QVQLVQSGAEVKKPGASVKVSCKVSGYTFSSSGIHWVRQAPGKGLEWMGGIFPNFGTAIYAQKFQGRVTMTEDTSTDTAYMELSSLKSEDTAVYYCARESDFWSGSFTNWGQGTLVTVSSSGGSTITSYNVYYTKLSSSGTDIQMTQSPSSVSASVGDRVTITCRASRSIGNWLAWYQQKPGKAPKLLIYDAFNRASGVPSRFSGSGSGTDFTLTISSLQPEDFANYYCQQSYSTLPRYSFGGGTKVEIK
B13: 15244_Lib8_scFv (scFv, not shown: small tags and cut ends)
scFv: EVQLVESGGGLVQPGRSLRLSCAASGFTFADYDMHWVRQAPGKGLEWVSATSSHGVTTDYADSVEGRFTISRDNAKNSLYLQMNSLRAEDTAVYYCARGAWSGIAARQYIDYWGQGTLVTVSSSGGSTITSYNVYYTKLSSSGTDIQMTQSPSSLSASVGDRVTITCRASQTIGYWLAWYQQKPGKAPKLLIYDASVPESGVPSRFSGSGSGTDFTLTISSLQPEDVATYYCQQSYSYPLTFGGGTKVEIK
B14: 7046_Lib8_scFv (scFv, not shown: small tags and cut ends)
scFv: EVQLVESGGGLVQPGRSLRLSCAASGFNFHNYDMHWVRQAPGKGLEWVSAISGSGYTADYADSVEGRFTISRDNAKNSLYLQMNSLRAEDTAVYYCAKSHSSGWSSAFDIWGQGTMVTVSSSGGSTITSYNVYYTKLSSSGTDIQMTQSPSSLSASVGDRVTITCRASQTIGYWLAWYQQKPGKAPKLLIYDATNLATGVPSRFSGSGSGTDFTLTISSLQPEDVATYYCQHYNPYSQVTFGGGTKVEIK
B15: 69_Lib8_scFv (scFv, not shown: small tags and cut ends)
scFv: EVQLVESGGGLVQPGRSLRLSCAASAFTFSNYDMHWVRQAPGKGLEWVSAISGSGDTSDYADSVEGRFTISRDNAKNSLYLQMNSLRAEDTAVYYCVRASWYGTFFDYWGQGTLVTVSSSGGSTITSYNVYYTKLSSSGTDIQMTQSPSSLSASVGDRVTITCRASQSVSGWLAWYQQKPGKAPKLLIYGTSTLQSGVPSRFSGSGSGTDFTLTISSLQPEDVATYYCQQSYSAPYTFGGGTKVEIK
B16: 965_Lib4_scFv (scFv, not shown: small tags and cut ends)
scFv: QVQLQESGPGLVKPSQTLSLTCTVSGASFGDNYWSWIRQPPGKGLEWIGYIDTSGSSDYNPSLKSRVTMSVDTSKNQFSLKVNSVTAADTAVYYCARDALGYYYMDVWGKGTTVTVSSSGGSTITSYNVYYTKLSSSGTEIVMTQSPATLSLSPGERATLSCRASQGISGRLAWYQQKPGQAPRLLIYDASARASGIPARFSGSGSGTDFTLTISSLEPEDFAVYYCQQYGTSPYTFGGGTKVEIK
B17: 11485_Lib1_scFv (scFv, not shown: small tags and cut ends)
scFv: QVQLVQSGAEVKKPGASVKVSCKVSGAPSAAIIHWVRQAPGKGLEWMGGFTQIFGTAIYAQKFQGRVTMTEDTSTDTAYMELSSLKSEDTAVYYCAREGIGGHDAFDIWGQGTMVTVSSSGGSTITSYNVYYTKLSSSGTDIQMTQSPSSVSASVGDRVTITCRASQDISKNLAWYQQKPGKAPKLLIYKASKLESGVPSRFSGSGSGTDFTLTISSLQPEDFANYYCLHDYTYPPTFGGGTKVEIK
B18: 9312_Lib8_scFv (scFv, not shown: small tags and cut ends)
scFv: EVQLVESGGGLVQPGRSLRLSCAASGFSLSTYDMHWVRQAPGKGLEWVSAISSSGDTRDYADSVEGRFTISRDNAKNSLYLQMNSLRAEDTAVYYCARAFWGGDAFDIWGQGTMVTVSSSGGSTITSYNVYYTKLSSSGTDIQMTQSPSSLSASVGDRVTITCRASQTIGYWLAWYQQKPGKAPKLLIYGASTLEGGVPSRFSGSGSGTDFTLTISSLQPEDVATYYCQHSYSAPPTFGGGTKVEIK
B19: 76_Lib4_scFv (scFv, not shown: small tags and cut ends)
scFv: QVQLQESGPGLVKPSQTLSLTCTVSGVSISNHYWSWIRQPPGKGLEWIGYIDESGSTDYNPSLKSRVTMSVDTSKNQFSLKVNSVTAADTAVYYCARVSWGYYAMDVWGQGTTVTVSSSGGSTITSYNVYYTKLSSSGTEIVMTQSPATLSLSPGERATLSCRASQGVSGHLAWYQQKPGQAPRLLIYETSKRATGIPARFSGSGSGTDFTLTISSLEPEDFAVYYCQQYNDYPLGFGGGTKVEIK
B20: 4761_Lib8_scFv (scFv, not shown: small tags and cut ends)
scFv: EVQLVESGGGLVQPGRSLRLSCAASGFTFSSDTMHWVRQAPGKGLEWVSAISSSGDHTDYADSVEGRFTISRDNAKNSLYLQMNSLRAEDTAVYYCAREGLRGYYFDYWGQGTLVTVSSSGGSTITSYNVYYTKLSSSGTDIQMTQSPSSLSASVGDRVTITCRASQGISGHLAWYQQKPGKAPKLLIYAASALQSGVPSRFSGSGSGTDFTLTISSLQPEDVATYYCQQSHSLPWTFGGGTKVEIK

Biological target: T1, biotinylated human VWF cysteine knot (CK) domain construct (human, biotin on the in vitro biotinylation tag (residue not stated); one N-glycan)
T1 construct: Disulfide-linked homodimer; also called biotinylated human VWF CK domain; human VWF CK domain construct
T1 chain: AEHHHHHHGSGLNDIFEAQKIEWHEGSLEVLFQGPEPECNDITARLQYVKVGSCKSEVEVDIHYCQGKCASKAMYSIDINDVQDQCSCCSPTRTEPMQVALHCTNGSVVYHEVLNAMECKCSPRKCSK
Assay: SPR, scFv captured on anti-SV5, pH 7.4

Binding result, binds:
B1
B2
B3
B4
B5
B6
B7
B8
B9
B10
B11
B12
B13
B14
B15
B16
B17
B18
B19
B20
